B1: importin 4 (natural protein)
chain: MESAGLEQLLRELLLPDTERIRRATEQLQIVLRAPAALPALCDLLASAADPQIRQFAAVLTRRRLNTRWRRLAAEQRESLKSLILTALQRETEHCVSLSLAQLSATIFRKEGLEAWPQLLQLLQHSTHSPHSPEREMGLLLLSVVVTSRPEAFQPHHRELLRLLNETLGEVGSPGLLFYSLRTLTTMAPYLSTEDVPLARMLVPKLIMAMQTLIPIDEAKACEALEALDELLESEVPVITPYLSEVLTFCLEVARNVALGNAIRIRILCCLTFLVKVKSKALLKNRLLPPLLHTLFPIVAAEPPPGQLDPEDQDSEEEELEIELMGETPKHFAVQVVDMLALHLPPEKLCPQLMPMLEEALRSESPYQRKAGLLVLAVLSDGAGDHIRQRLLPPLLQIVCKGLEDPSQVVRNAALFALGQFSENLQPHISSYSREVMPLLLAYLKSVPLGHTHHLAKACYALENFVENLGPKVQPYLPELMECMLQLLRNPSSPRAKELAVSALGAIATAAQASLLPYFPAIMEHLREFLLTGREDLQPVQIQSLETLGVLARAVGEPMRPLAEECCQLGLGLCDQVDDPDLRRCTYSLFAALSGLMGEGLAPHLEQITTLMLLSLRSTEGIVPQYDGSSSFLLFDDESDGEEEEELMDEDVEEEDDSEISGYSVENAFFDEKEDTCAAVGEISVNTSVAFLPYMESVFEEVFKLLECPHLNVRKAAHEALGQFCCALHKACQSCPSEPNTAALQAALARVVPSYMQAVNRERERQVVMAVLEALTGVLRSCGTLTLKPPGRLAELCGVLKAVLQRKTACQDTDEEEEEEDDDQAEYDAMLLEHAGEAIPALAAAAGGDSFAPFFAGFLPLLVCKTKQGCTVAEKSFAVGTLAETIQGLGAASAQFVSRLLPVLLSTAQEADPEVRSNAIFGMGVLAEHGGHPAQEHFPKLLGLLFPLLARERHDRVRDNICGALARLLMASPTRKPEPQVLAALLHALPLKEDLEEWVTIGRLFSFLYQSSPDQVIDVAPELLRICSLILADNKIPPDTKAALLLLLTFLAKQHTDSFQAALGSLPVDKAQELQAVLGLS
B2: MBP-hsNXF1-N (domain or fragment)
chain: MADEGKSYSEHDDERVNFPQRKKKGRGPFRWKYGEGNRRSGRGGSGIRSSRLEEDDGDVAMSDAQDGPRVRYNPYTTRPNRRGDTWHDRDRIHVTVRRDRAPPERGGAG
B3: MBP-hsNXF1-N(21-30/A) (domain or fragment)
chain: B2 chain with R21A, K22A, K23A, K24A, G25A, R26A, G27A, P28A, F29A, R30A
B4: MBP-hsNXF1-N(71-75/A) (domain or fragment)
chain: B2 chain with R71A, Y72A, N73A, P74A, Y75A
B5: GST-hsNXF1 (full-length human NXF1) (natural protein)
chain: MADEGKSYSEHDDERVNFPQRKKKGRGPFRWKYGEGNRRSGRGGSGIRSSRLEEDDGDVAMSDAQDGPRVRYNPYTTRPNRRGDTWHDRDRIHVTVRRDRAPPERGGAGTSQDGTSKNWFKITIPYGRKYDKAWLLSMIQSKCSVPFTPIEFHYENTRAQFFVEDASTASALKAVNYKILDRENRRISIIINSSAPPHTILNELKPEQVEQLKLIMSKRYDGSQQALDLKGLRSDPDLVAQNIDVVLNRRSCMAATLRIIEENIPELLSLNLSNNRLYRLDDMSSIVQKAPNLKILNLSGNELKSERELDKIKGLKLEELWLDGNSLCDTFRDQSTYISAIRERFPKLLRLDGHELPPPIAFDVEAPTTLPPCKGSYFGTENLKSLVLHFLQQYYAIYDSGDRQGLLDAYHDGACCSLSIPFIPQNPARSSLAEYFKDSRNVKKLKDPTLRFRLLKHTRLNVVAFLNELPKTQHDVNSFVVDISAQTSTLLCFSVNGVFKEVDGKSRDSLRAFTRTFIAVPASNSGLCIVNDELFVRNASSEEIQRAFAMPAPTPSSSPVPTLSPEQQEMLQAFSTQSGMNLEWSQKCLQDNNWDYTRSAQAFTHLKAKGEIPEVAFMK

In test [1] the target is RanGTP (recombinant human Ran loaded with GTP) (human, UniProt P62826 1-216). Nature of the test: pull-down.
A further test addresses T1, karyopherin β2 (human, UniProt Q92973 1-898).
T1 sequence: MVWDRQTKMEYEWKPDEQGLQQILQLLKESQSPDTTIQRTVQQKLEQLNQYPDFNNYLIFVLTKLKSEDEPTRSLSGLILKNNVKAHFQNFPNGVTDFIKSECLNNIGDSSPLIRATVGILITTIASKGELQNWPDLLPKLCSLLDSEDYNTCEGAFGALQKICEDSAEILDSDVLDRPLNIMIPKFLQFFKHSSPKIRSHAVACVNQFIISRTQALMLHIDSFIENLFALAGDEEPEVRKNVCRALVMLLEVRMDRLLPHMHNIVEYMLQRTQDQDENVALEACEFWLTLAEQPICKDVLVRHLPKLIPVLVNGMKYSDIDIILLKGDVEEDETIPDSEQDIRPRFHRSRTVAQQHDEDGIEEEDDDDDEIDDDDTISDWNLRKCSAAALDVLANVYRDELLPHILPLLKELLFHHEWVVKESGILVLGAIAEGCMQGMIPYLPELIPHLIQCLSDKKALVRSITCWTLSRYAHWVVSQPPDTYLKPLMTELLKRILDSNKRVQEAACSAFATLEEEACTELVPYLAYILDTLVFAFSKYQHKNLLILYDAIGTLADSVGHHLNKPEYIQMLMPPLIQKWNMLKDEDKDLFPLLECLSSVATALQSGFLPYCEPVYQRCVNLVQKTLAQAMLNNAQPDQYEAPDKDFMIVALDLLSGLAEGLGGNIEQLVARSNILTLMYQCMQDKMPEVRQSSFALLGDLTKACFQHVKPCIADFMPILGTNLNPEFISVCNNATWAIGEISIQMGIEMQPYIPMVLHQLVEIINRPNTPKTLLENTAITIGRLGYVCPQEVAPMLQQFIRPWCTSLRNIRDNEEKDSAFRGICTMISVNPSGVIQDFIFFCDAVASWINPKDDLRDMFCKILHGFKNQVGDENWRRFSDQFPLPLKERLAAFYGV
Nature of the test: ITC. (In ITC the heat of successive injections is recorded.)

For test [2], the target named is T2, importin β (human, UniProt Q14974 1-876). Nature of the test: ITC.
The target in the next test is T3, GST-Imp4 (human, UniProt Q8TEX9 1-1081).
T3 sequence: B1 chain
Nature of the test: pull-down.

The target in a further test is T4, GST-Imp11 (human, UniProt Q9UI26 1-975).
T4 sequence: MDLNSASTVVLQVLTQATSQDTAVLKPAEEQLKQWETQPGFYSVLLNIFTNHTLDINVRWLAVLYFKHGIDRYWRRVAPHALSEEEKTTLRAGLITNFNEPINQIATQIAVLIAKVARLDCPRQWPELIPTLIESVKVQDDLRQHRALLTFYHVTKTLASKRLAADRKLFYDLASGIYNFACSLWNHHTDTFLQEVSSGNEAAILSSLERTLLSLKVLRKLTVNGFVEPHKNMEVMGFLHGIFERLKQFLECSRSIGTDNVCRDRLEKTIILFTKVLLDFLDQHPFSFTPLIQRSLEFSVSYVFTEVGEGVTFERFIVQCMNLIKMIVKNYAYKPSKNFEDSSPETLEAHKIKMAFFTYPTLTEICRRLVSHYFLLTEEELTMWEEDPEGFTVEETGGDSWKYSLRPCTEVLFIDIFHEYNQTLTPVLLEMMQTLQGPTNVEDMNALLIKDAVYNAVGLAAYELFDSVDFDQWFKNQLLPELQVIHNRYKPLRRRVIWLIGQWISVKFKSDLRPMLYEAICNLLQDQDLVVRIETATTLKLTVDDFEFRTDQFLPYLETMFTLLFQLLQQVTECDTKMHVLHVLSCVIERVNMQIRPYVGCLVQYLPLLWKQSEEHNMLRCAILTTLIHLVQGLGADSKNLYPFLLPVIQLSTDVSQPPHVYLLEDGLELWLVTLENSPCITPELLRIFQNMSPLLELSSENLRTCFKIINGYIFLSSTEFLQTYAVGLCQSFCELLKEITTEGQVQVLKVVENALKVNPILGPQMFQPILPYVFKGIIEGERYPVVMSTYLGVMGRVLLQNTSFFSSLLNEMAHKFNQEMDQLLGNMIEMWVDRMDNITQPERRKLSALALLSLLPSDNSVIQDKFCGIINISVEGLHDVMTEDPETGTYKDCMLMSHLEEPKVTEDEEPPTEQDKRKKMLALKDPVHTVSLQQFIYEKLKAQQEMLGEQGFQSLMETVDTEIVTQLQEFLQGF
Nature of the test: pull-down.

In a further test the target is T5, importin 11 (human, UniProt Q9UI26 1-975).
T5 sequence: T4 sequence
Nature of the test: pull-down.

In test [3] the target is T2, importin β. Nature of the test: pull-down.
For the test “importin 4”, the target named is B1. Nature of the test: pull-down.

Positions count from the first letter of the chain named.

T2 sequence (Q14974 whole entry): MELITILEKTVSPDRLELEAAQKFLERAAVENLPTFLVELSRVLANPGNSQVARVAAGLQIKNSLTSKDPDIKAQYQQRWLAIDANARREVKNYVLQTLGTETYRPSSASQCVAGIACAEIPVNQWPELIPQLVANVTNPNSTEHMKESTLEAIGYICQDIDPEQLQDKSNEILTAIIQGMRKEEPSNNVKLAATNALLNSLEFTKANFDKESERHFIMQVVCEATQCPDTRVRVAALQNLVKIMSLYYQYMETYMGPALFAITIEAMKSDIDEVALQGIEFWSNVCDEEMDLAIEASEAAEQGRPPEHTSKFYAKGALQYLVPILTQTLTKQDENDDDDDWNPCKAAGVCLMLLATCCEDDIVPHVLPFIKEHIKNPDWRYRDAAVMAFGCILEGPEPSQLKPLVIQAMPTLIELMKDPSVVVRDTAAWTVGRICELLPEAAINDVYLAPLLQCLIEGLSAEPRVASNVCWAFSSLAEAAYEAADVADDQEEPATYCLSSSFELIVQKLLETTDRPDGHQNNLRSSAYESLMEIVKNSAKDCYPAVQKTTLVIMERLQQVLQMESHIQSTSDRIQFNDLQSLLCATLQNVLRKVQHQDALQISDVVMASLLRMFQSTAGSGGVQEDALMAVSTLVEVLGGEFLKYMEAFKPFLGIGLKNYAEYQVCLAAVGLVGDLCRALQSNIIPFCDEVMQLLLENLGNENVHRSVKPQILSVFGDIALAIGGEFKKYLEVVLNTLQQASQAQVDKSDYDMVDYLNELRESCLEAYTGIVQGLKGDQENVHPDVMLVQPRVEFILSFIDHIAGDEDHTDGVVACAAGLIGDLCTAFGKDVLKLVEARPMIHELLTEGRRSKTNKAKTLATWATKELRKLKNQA

Consider B1, for which, in test [1], the binding result is recorded as “binds”.

As a reminder, the Kd is the concentration at which binding is half-saturated. In the test with karyopherin β2, B2 yielded a Kd of 40.5 nM and a dH of -17.2 kcal/mol. Moreover, in the test with importin β [2], the “dH (two-site model, site 1)” value was -7.51 kcal/mol and the “dH (two-site model, site 2)” value is -4.6 kcal/mol. For the same molecule, in the test with GST-Imp4, the binding result is recorded as “binds”. The binding result with GST-Imp11 was “binds”.

Take B3: the Kd with karyopherin β2 worked out at 128 nM; with importin β [2], 2230 nM. Further, the dH in the test with karyopherin β2 is -13.9 kcal/mol; with importin β [2], -2.48 kcal/mol.

As for B4, in the test with karyopherin β2, the Kd is 215 nM and the dH was -12.9 kcal/mol. In the test with importin β [2], the “dH (two-site model, site 1)” value was -7.73 kcal/mol and the “dH (two-site model, site 2)” value is -3.28 kcal/mol.

As to B5, the binding result with importin 11, in the test with importin β [3] and in the test with importin 4 was “binds” throughout.

These data come from PMC3226482 (Molecular Biology of the Cell, 2011).
